The target in experiment [1] is T1, AILIM ligand B7-H2/Fc Chimera (R&D Systems, Inc.), biotinylated (UniProt O75144 19-258, biotinylated using EZ-Link NHS-PEO Solid Phase Biotinylation Kit (sites not given)).
T1 construct: Bought reagent; also called B7RP-1; Fc part of the bought chimera not given
T1 sequence (looked up): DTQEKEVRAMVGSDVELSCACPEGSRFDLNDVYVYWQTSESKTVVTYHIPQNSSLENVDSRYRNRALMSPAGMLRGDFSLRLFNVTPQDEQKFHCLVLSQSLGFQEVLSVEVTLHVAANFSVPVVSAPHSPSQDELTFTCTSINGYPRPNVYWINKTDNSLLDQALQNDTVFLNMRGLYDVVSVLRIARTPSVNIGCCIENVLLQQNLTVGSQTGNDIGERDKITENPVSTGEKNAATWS
Briefly: ELISA, coated synthetic AILIM (lot a, 0.004178 nmol/ml) against coated ICOS/Fc as reference, biotinylated B7-H2/Fc. As for the experimental part:
(§1) Dilution series of each evaluation sample solution of synthetic AILIM were added to an ELISA plate, and each well was coated therewith by reaction at 37° C. for 2 hours. After the reaction, the sample solution was discarded, D-PBS (−) containing 0.4% bovine serum albumin and 0.05% Tween 20 (blocking solution) was added at a concentration of 150 μL/well, and each well was blocked by reaction at 37° C. for 1 hour. The plate thus blocked was washed 3 times with D-PBS (−) containing 0.1% bovine serum albumin and 0.05% Tween 20 (washing buffer). An AILIM ligand B7-H2/Fc Chimera (R&D Systems, Inc.) biotinylated using EZ-Link NHS-PEO Solid Phase Biotinylation Kit was added at a concentration of 200 ng/50 μL/well and reacted at 37° C. for 1.5 hours. Unreacted ligand molecules were removed by washing 3 times with the washing buffer.
(§2) Subsequently, streptavidin-labeled horseradish peroxidase (BD-Pharmingen) diluted 1000-fold with D-PBS (−) containing 0.1% bovine serum albumin was added at a concentration of 100 μL/well and reacted at 37° C. for 1 hour. After the reaction, the plate was washed with 3 times with the washing buffer to remove unreacted streptavidin-labeled horseradish peroxidase. […] The reaction was terminated by the addition of 1% SDS at a concentration of 100 μL/well, and the OD value at 405 nm was measured using a plate reader (VersaMax, Molecular Devices, LLC). […]
For orientation: ELISA stands for enzyme-linked immunosorbent assay.

For experiment [2], the target named is T1, AILIM ligand B7-H2/Fc Chimera (R&D …). As to the kind of experiment: ELISA, coated synthetic AILIM against coated ICOS/Fc as reference, biotinylated B7-H2/Fc. As for the experimental part:
as §1, §2

For experiment [3] the target is unchanged. Briefly: ELISA, coated synthetic AILIM (lot a, 0.06684 nmol/ml) against coated ICOS/Fc as reference, biotinylated B7-H2/Fc. The method, then:
as §1, §2

Experiment [4] has the same target. Briefly: ELISA, coated synthetic AILIM (lot a, 0.01671 nmol/ml) against coated ICOS/Fc as reference, biotinylated B7-H2/Fc. The method, then: as §1, §2

B1: oligosaccharide chain-added extracellular domain of AILIM (synthetic AILIM), 120-amino acid extracellular domain of human AILIM with an asialo-nonasaccharide … (receptor)
chain: EINGSANYEMFIFHNGGVQILCKYPDIVQQFKMQLLKGGQILCDLTKTKGSGNTVSIKSLKFCHSQLSNNSVSFFLYNLDHSHANYYFCNLSIFDPPPFKVTLTGGYLHIYESQLCCQLK
modifications: asialo-nonasaccharide chain on Asn at position 69 (residue 89 by counting from the N-terminal Met of AILIM); no oligosaccharide chain at positions 3 and 90
notes: Made by chemical synthesis (Fmoc solid phase, KCL/NCL ligation), Acm groups removed, folded by dialysis in two dialysis tubes (lot a and lot b); Coated on the ELISA plate in the assays; also called synthetic AILIM lot. a; synthetic AILIM lot. b
As for B1, the “B/A (ICOS/Fc concentration for the same absorbance over synthetic AILIM concentration)” value in experiment [1] was determined as 8.88 fold; in experiment [3], 11.4 fold; in experiment [4] it was 6.05 fold. Besides, the “fold ICOS/Fc concentration required for equivalent ligand binding activity” value in experiment [2] is ~10 fold.

Values taken from patent US20120114595A1 (OTSUKA CHEMICAL, published 2012).
